Earlier results on one substance are cited in paper PMC2712931.

The data set addresses Pex5 (UniProt P50542).

On to Pex14 (from UniProt O75381), for which the equilibrium dissociation constant (Kd) was 2.75 µM.

As a reminder, the Kd is the constant that tells how readily two partners part at equilibrium.
